± gives the uncertainty stated by the source.
B1: F-BAR and double SH3 domains protein 1, residues 467 to 528; numbered along this chain, Q86WN1 (parent)
chain: RALPCPAHVVFRYQAGREDELTITEGEWLEVIEEGDADEWVKARNQHGEVGFVPERYLNFPD

Variants of: B1
Test: abundance fitness (aPCA) (normalised: wild type 0, dead -1); higher = more abundant; growth selection in yeast, the domain comes from the species named
Details: Homo sapiens

Row | Variant | abundance fitness
1 | E30S | -0.125 ± 0.065
2 | I32F | 0.018 ± 0.063
3 | F52C | -0.189 ± 0.088
4 | N59L | -0.159 ± 0.035
5 | N59T | 0.006 ± 0.058
6 | P61I | 0.091 ± 0.12
7 | D38R | 0.053 ± 0.054
8 | P4K | -0.359 ± 0.15
9 | Y57L | -0.023 ± 0.037
10 | Y13I | -0.742 ± 0.17
11 | E39M | 0.148 ± 0.071
12 | E39Y | -0.226 ± 0.097
13 | F60V | -0.157 ± 0.05
14 | L3V | -0.439 ± 0.062
15 | E55D | -0.057 ± 0.11
16 | E20A | -0.205 ± 0.064
17 | L3Y | 0.124 ± 0.075
18 | V31S | -0.683 ± 0.091
19 | V53I | -0.031 ± 0.085
20 | V50L | -0.285 ± 0.052
21 | C5L | -0.538 ± 0.067
22 | N59V | -0.078 ± 0.046
23 | Q14N | 0.013 ± 0.1
24 | L3R | -0.333 ± 0.044

Row | Variant | abundance fitness
25 | V53Q | -0.624 ± 0.1
26 | R56H | -0.118 ± 0.1
27 | V10S | -0.105 ± 0.073
28 | H8D | -0.282 ± 0.11
29 | D38L | 0.016 ± 0.044
30 | E30L | -0.277 ± 0.055
31 | I32Q | -0.307 ± 0.091
32 | I32W | -0.276 ± 0.07
33 | L29C | -0.819 ± 0.24
34 | R12V | -0.367 ± 0.061
35 | E20H | -0.138 ± 0.13
36 | D38Y | -0.122 ± 0.056
37 | E49S | -0.022 ± 0.052
38 | G16R | -0.064 ± 0.053
39 | Q46H | -0.163 ± 0.15
40 | V50F | -0.29 ± 0.09
41 | G35D | -0.211 ± 0.094
42 | A2E | 0.196 ± 0.083
43 | D19F | -0.006 ± 0.058
44 | H8W | -0.041 ± 0.12
45 | L21N | -0.925 ± 0.26
46 | L21C | -0.951 ± 0.31
47 | R1E | -0.431 ± 0.1
48 | D62I | -0.435 ± 0.12

Row | Variant | abundance fitness
49 | Y13P | -0.711 ± 0.13
50 | L58Q | -0.819 ± 0.14
51 | E30P | -0.753 ± 0.12
52 | A43W | -0.83 ± 0.15
53 | H47V | 0.004 ± 0.053
54 | V41A | -0.495 ± 0.081
55 | F52N | -0.175 ± 0.093
56 | Q14F | -0.018 ± 0.056
57 | F11P | -0.774 ± 0.11
58 | E33S | 0.063 ± 0.048
59 | N59E | 0.028 ± 0.06
60 | A43D | -0.793 ± 0.22
61 | V41I | -0.353 ± 0.097
62 | A37P | -0.107 ± 0.074
63 | E25W | -0.373 ± 0.12
64 | G35A | -0.045 ± 0.052
65 | E27S | -1.01 ± 0.14
66 | E49R | -0.085 ± 0.058
67 | E20T | -0.286 ± 0.097
68 | A15M | -0.79 ± 0.16
69 | D19T | 0.051 ± 0.059
70 | E27Y | -0.825 ± 0.29
71 | G35I | -0.232 ± 0.19
72 | V9T | -0.531 ± 0.1

Row | Variant | abundance fitness
73 | I23C | -0.228 ± 0.076
74 | V53H | -0.675 ± 0.24
75 | R12G | 0.085 ± 0.043
76 | D38F | -0.127 ± 0.077
77 | P6C | -0.12 ± 0.071
78 | G16A | 0.024 ± 0.066
79 | N59Q | 0.018 ± 0.053
80 | R17E | -0.02 ± 0.083
81 | P6G | -0.209 ± 0.052
82 | P4E | -0.285 ± 0.12
83 | G16E | 0.165 ± 0.12
84 | E34P | -0.112 ± 0.072
85 | F60N | -0.531 ± 0.16
86 | W40G | -0.547 ± 0.07
87 | Y57N | 0.109 ± 0.083
88 | K42L | -0.166 ± 0.044
89 | V9L | -0.835 ± 0.075
90 | E30D | -0.177 ± 0.093
91 | D62F | -0.399 ± 0.11
92 | I23R | -0.751 ± 0.069
93 | F60G | -0.555 ± 0.063
94 | L29P | -0.688 ± 0.11
95 | F52M | -0.019 ± 0.061
96 | G16P | -0.608 ± 0.2

Row | Variant | abundance fitness
97 | G48Q | -0.574 ± 0.19
98 | E34W | -0.074 ± 0.063
99 | F52T | -0.284 ± 0.079
100 | W40Q | -0.122 ± 0.066
101 | Y13V | -0.785 ± 0.097
102 | D38M | -0.17 ± 0.068
103 | V9H | -0.85 ± 0.22
104 | E18M | -0.245 ± 0.087
105 | E55M | 0.035 ± 0.049
106 | P61N | -0.042 ± 0.096
107 | A7Y | -0.528 ± 0.21
108 | P54T | -0.831 ± 0.11
109 | V31G | -0.888 ± 0.087
110 | H47I | -0.176 ± 0.14
111 | D36C | -0.182 ± 0.11
112 | E34S | -0.101 ± 0.053
113 | A43Q | -0.839 ± 0.16
114 | H8Q | -0.168 ± 0.077
115 | H8F | -0.591 ± 0.12
116 | G26Y | -0.564 ± 0.13
117 | D19N | -0.028 ± 0.084
118 | P6V | -0.243 ± 0.049
119 | A7E | -0.742 ± 0.32
120 | G51M | -0.843 ± 0.12

Row | Variant | abundance fitness
121 | T22I | -0.847 ± 0.16
122 | A37V | 0.052 ± 0.052
123 | F60P | -0.466 ± 0.18
124 | R44W | -0.947 ± 0.19
125 | G51L | -0.273 ± 0.057
126 | G48I | -0.787 ± 0.22
127 | D38N | -0.017 ± 0.062
128 | G48A | -0.39 ± 0.084
129 | N45A | -0.567 ± 0.1
130 | V41Q | -0.949 ± 0.18
131 | W28Q | 0.026 ± 0.063
132 | T24E | 0.105 ± 0.082
133 | F60E | -0.561 ± 0.1
134 | T22P | -0.704 ± 0.1
135 | W28G | -0.217 ± 0.058
136 | E33N | -0.183 ± 0.095
137 | E34G | -0.17 ± 0.064
138 | N45W | -1.16 ± 0.22
139 | T22L | -0.778 ± 0.065
140 | P54A | -0.2 ± 0.073
141 | N59S | -0.036 ± 0.042
142 | E20Y | -0.548 ± 0.17
143 | P4C | -0.346 ± 0.15
144 | G51Y | -0.736 ± 0.16

Row | Variant | abundance fitness
145 | E27I | -0.468 ± 0.22
146 | V9E | -0.411 ± 0.12
147 | G26A | -0.501 ± 0.078
148 | K42D | -0.664 ± 0.17
149 | E25V | -0.154 ± 0.12
150 | R56E | 0.053 ± 0.081
151 | T24L | -0.081 ± 0.046
152 | G48Y | -0.494 ± 0.15
153 | D19Y | -0.04 ± 0.076
154 | L21Q | -0.927 ± 0.21
155 | L3H | -0.206 ± 0.091
156 | G35R | -0.072 ± 0.056
157 | V41N | -1.01 ± 0.3
158 | E49P | -1.05 ± 0.19
159 | D36L | -0.01 ± 0.047
160 | D38Q | 0.021 ± 0.099
161 | E49T | -0.075 ± 0.07
162 | V9G | -0.602 ± 0.081
163 | D38K | -0.08 ± 0.091
164 | N45P | -0.301 ± 0.15
165 | P6W | -0.29 ± 0.062
166 | E20K | -0.809 ± 0.17
167 | D36E | 0.032 ± 0.072

From the Human Domainome abundance scans (Beltran et al. 2025)
